Here are results for 34 sequences from the supplement of paper PMC7877785.

± gives the uncertainty stated by the source.

The data set is described as follows: self-splicing fitness, log relative to wild type (ln ratio); higher = more splicing; Tetrahymena group I intron in knt gene, E. coli kanamycin selection, DiMSum; sequences stand for … in CUCUCU…GGAGGGAAAAGUUAUCAGGCAUGCACCUGGUAGCUAGUCUUUAAACCAAUAGAUUGCAUCGGUUUAAAAGGCAAGACCGUCAAAUUGCGGGAAAGGGGUCAACAGCCGUUCAGUACCAAGUCUCAGGGGAAACUUUGAGAUGGCCUUGCAAAGGGUAUGGUAAUAAGCUGACGGACAUGGUCCUAACCACGCAGCCAAGUCCUAAGUCAACAGAUCUUCUGUUGAUAUGGAUGCAGUUCACAGACUAAAUGUCGGUCGGGGAAGAUGUAUUCUUCUCAUAAGAUAUAGUCGGACCUCUCCUUAAUGGGAGCUAGCGGAUGAAGUGAUGCAACACUGGAGCCGCUGGGAACUAAUUUGUAUGCGAAAGUAUAUUGAUUAGUUUUGGAGUACUCGUGGUCG
The method in brief: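 DiMSum derived fitness as the error-weighted combination of fold changes across replicates, kanamycin versus no kanamycin, normalised to wild type. E. coli BL21(DE3) held the library, which randomised all eight P1ex-region intron nucleotides within the knt kanamycin-resistance gene on pET-22b(+). Six replicate transformations grew overnight at 37°C or 30°C on LB agar with or without 25 μg/mL kanamycin, also containing 100 μg/mL carbenicillin, 50 μM IPTG and 0.2% rhamnose, and pooled colonies were amplicon-sequenced on an Illumina HiSeq 2500.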

As for CUUGAGCAAUAUUACGCGUU, the “self-splicing fitness (ln)” value is -4.07 ± 0.39 (30 °C) and -2.14 ± 0.23 (37 °C).
Take AUCGAGCAAUAUUACGGUGG: the “self-splicing fitness (ln)” value (37 °C) was -2.04 ± 0.36.
For the sequence AUACAGCAAUAUUACGUCCA, the “self-splicing fitness (ln)” value was -1.17 ± 0.08 (30 °C) and -0.0617 ± 0.086 (37 °C).
The like results for GUGUAGCAAUAUUACGUGUA were, in that order, -2.62 ± 0.14 and -1.22 ± 0.11.
For the sequence GGGGAGCAAUAUUACGCCAA, under “37 °C”, the “self-splicing fitness (ln)” value is -0.647 ± 0.44.
For the sequence CAGUAGCAAUAUUACGUAAC, for the setting “37 °C”, the “self-splicing fitness (ln)” value was -0.919 ± 0.33.
In the case of CACUAGCAAUAUUACGUCCA, the “self-splicing fitness (ln)” value (30 °C) is -2.87 ± 0.22 and the “self-splicing fitness (ln)” value (37 °C) is -1.31 ± 0.16.
The like results for GGCCAGCAAUAUUACGUCGG were, in that order, -3.69 ± 0.26 and -1.9 ± 0.24.
AGUCAGCAAUAUUACGAACA: the “self-splicing fitness (ln)” value was -0.843 ± 0.076 (30 °C) and -0.406 ± 0.11 (37 °C).
The like results for UCCCAGCAAUAUUACGCUUG were, in that order, -3.31 ± 0.15 and -2.4 ± 0.19.
The like results for UCUUAGCAAUAUUACGGGAU were, in that order, -3.65 ± 0.33 and -2.65 ± 0.36.
As to CCUGAGCAAUAUUACGGGCU, the “self-splicing fitness (ln)” value (30 °C) is -2.51 ± 0.16 and the “self-splicing fitness (ln)” value (37 °C) was -2.3 ± 0.32.
The like results for UCCAAGCAAUAUUACGGGUA were, in that order, -0.53 ± 0.062 and 0.199 ± 0.066.
As to GAAUAGCAAUAUUACGUGCC, the “self-splicing fitness (ln)” value is -0.897 ± 0.12 (30 °C) and -0.104 ± 0.15 (37 °C).
The like results for CCCGAGCAAUAUUACGUCGU were, in that order, -2.45 ± 0.12 and -3.06 ± 0.24.
The like results for GUUAAGCAAUAUUACGCUGG were, in that order, -0.613 ± 0.17 and -0.0646 ± 0.2.
The like results for UGACAGCAAUAUUACGUGAU were, in that order, -3.05 ± 0.11 and -0.351 ± 0.084.
Turning to CUGUAGCAAUAUUACGUUUU, the “self-splicing fitness (ln)” value is -4.23 ± 0.35 (30 °C) and -2.23 ± 0.19 (37 °C).
The like results for GAGGAGCAAUAUUACGGUAA were, in that order, -3.65 ± 0.37 and -2.22 ± 0.36.
The like results for GCUCAGCAAUAUUACGGCGC were, in that order, -1.44 ± 0.085 and -0.248 ± 0.12.
The like results for AUGUAGCAAUAUUACGUCUG were, in that order, -1.94 ± 0.19 and -2.83 ± 0.26.
Consider GUUAAGCAAUAUUACGCUUA, for which the “self-splicing fitness (ln)” value is, setting by setting: (30 °C) -3.09 ± 0.26; (37 °C) -2.71 ± 0.25.
The like results for CCCAAGCAAUAUUACGCAGA were, in that order, -2.74 ± 0.21 and -2.72 ± 0.14.
Regarding GUAAAGCAAUAUUACGUAAG, the “self-splicing fitness (ln)” value (30 °C) was -1.95 ± 0.1 and the “self-splicing fitness (ln)” value (37 °C) was -1.2 ± 0.13.
Take CAGCAGCAAUAUUACGGCUC: the “self-splicing fitness (ln)” value (30 °C) is -0.127 ± 0.081 and the “self-splicing fitness (ln)” value (37 °C) is -0.486 ± 0.099.
Consider GACAAGCAAUAUUACGCAAG, for which the “self-splicing fitness (ln)” value (30 °C) was -2.27 ± 0.091 and the “self-splicing fitness (ln)” value (37 °C) is -1.75 ± 0.12.
Take GGCGAGCAAUAUUACGGAUU: the “self-splicing fitness (ln)” value is -1.21 ± 0.17 (30 °C) and -1.06 ± 0.24 (37 °C).
The like results for UCAAAGCAAUAUUACGAUCU were, in that order, -2.82 ± 0.13 and -0.778 ± 0.12.
The like results for GAAGAGCAAUAUUACGGCGA were, in that order, -1.57 ± 0.2 and -0.931 ± 0.25.
As to GUUGAGCAAUAUUACGAGUA, the “self-splicing fitness (ln)” value (37 °C) is -1.41 ± 0.39.
With AGACAGCAAUAUUACGACGC, the “self-splicing fitness (ln)” value reads like this: (30 °C) -0.912 ± 0.086; (37 °C) -0.726 ± 0.11.
The like results for GAUUAGCAAUAUUACGGUCU were, in that order, -3.15 ± 0.32 and -2.07 ± 0.18.
In the case of GAGGAGCAAUAUUACGCGUA, the “self-splicing fitness (ln)” value runs as follows: (30 °C) -2.97 ± 0.27; (37 °C) -1.6 ± 0.37.
The like results for UAGCAGCAAUAUUACGAUGU were, in that order, -3.82 ± 0.21 and -2.5 ± 0.2.
